{"source": "patent US20230201361", "proteins": {"B1": {"name": "MMP-19 (protein)", "chain": "YLLLGRWRKKHLTFRILNLPSTLPPHTARAALRQAFQDWSNVAPLTFQEVQAGAADIRLSFHGRQSSYCSNTFDGPGRVLAHADIPELGSVHFDEDEFWTEGTYRGVNLRIIAAHEVGHALGLGHSRYSQALMAPVYEGYRPHFKLHPDDVAGIQALYGKKSPVIRDEEEEETELPTVPPVPTEPSPMPDPCSSELDAMMLGPRGKTYAFKGDYVWTVSDSGPGPLFRVSALWEGLPGNLDAAVYSPRTQWIHFFKGDKVWRYINFKMSPGFPKKLNRVEPNLDAALYWPLNQKVFLFKGSGYWQWDELARTDFSSYPKPIKGLFTGVPNQPSAAMSWQDGRVYFFKGKVYWRLNQQLRVEKGYPRNISHNWMHCRPRTIDTTPSGGNTTPSGTGITLDTTLSATETTFEY"}}, "key": {"[1]": {"target": "control peptide, an HES-bearing peptide of the same length, with the same labeling, that does not contain the conformation-dependent cleavage site"}, "[2]": {"target": "eighteen amino acid peptide containing the amino acid sequence PLGIA, covalently labeled with the same fluorophore near each end (HES structure)"}}, "data": [{"protein": "B1", "values": [{"measurement": "fluorescence intensity", "setting": "[1]", "value": "The fluorescence of the latter does not increase upon addition of the MMP"}, {"measurement": "fluorescence intensity", "setting": "[2]", "value": "Cleavage of the peptide gives rise to an increase in fluorescence intensity"}]}]}
